Literature values, collected in paper PMC11449392.
pKd: −log10 of the molar value.

Molecular target: Abl PRM (Homo sapiens) (UniProt P00519)
Chain of UniProt P00519 (P00519 whole entry, looked up): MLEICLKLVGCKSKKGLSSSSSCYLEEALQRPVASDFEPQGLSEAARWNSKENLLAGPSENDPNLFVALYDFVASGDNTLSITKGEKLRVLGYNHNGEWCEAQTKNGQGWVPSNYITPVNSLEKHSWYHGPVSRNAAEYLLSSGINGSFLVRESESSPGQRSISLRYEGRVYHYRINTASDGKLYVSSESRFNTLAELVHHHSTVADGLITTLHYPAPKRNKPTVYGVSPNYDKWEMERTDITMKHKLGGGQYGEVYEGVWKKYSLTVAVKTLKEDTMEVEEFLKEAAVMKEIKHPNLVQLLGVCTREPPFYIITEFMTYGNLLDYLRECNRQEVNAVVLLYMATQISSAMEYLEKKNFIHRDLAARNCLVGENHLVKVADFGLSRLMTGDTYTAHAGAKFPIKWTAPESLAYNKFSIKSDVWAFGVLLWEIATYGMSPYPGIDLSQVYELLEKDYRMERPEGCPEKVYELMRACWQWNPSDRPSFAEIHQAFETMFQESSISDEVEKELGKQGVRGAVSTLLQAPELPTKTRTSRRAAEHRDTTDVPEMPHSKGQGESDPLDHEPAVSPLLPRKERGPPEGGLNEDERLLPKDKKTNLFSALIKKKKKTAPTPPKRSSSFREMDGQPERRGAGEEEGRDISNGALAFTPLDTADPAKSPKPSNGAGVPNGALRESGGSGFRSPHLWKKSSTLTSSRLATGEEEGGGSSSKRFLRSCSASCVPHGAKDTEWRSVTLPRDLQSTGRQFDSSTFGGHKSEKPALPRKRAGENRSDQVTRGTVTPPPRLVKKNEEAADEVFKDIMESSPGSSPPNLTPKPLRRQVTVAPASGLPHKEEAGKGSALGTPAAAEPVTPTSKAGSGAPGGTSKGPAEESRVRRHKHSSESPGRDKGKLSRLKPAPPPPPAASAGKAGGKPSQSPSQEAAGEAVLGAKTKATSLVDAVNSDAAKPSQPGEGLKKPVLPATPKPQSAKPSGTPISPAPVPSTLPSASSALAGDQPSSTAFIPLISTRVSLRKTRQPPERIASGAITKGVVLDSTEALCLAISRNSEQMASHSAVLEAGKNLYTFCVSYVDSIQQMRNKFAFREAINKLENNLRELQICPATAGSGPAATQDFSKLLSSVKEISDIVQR

For “Nck second SH3 domain (from UniProt P16333)”, the pKd is listed as 3.46.
